From US20230272099A1 (Chugai, published 2023) come the findings set out here.

Substitutions are numbered along the chain they refer to.

B1: dBBAT091-P253 (antibody, human IgG1, lambda, V domains shown)
VH: EVQLVESGGDLVKPGGGLRLSCAASGFTFSSYTMNWVRQAPGKGLEWVSSISSRSNYIDYADSVKGRFTISRDNAKNSLYLQMNSLRAEDTAVYYCARFGKKNDMNWVFDYWGQGTLVTVSS
VL: QSALTQPPSASGSPGQTVTISCTGTSTDVGFYNYVSWYQQHPGKAPKLMIYEGSKRPSGVPDRFSGSKSGNTASLTVSGLQAEDEADYFCSSYEYTESVLFGGGTKLTVLG
B2: dBBAT042-P253 (antibody, human IgG1, lambda, V domains shown)
VH: B1 VH with Y32H, V48I, I58K, D59S, F99Y, K101H, D104M, M105H
VL: B1 VL with T27S, G53V, S92T, E94R, T96D, E97Q, S98N, L100A
B3: dBBAT021-P253 (antibody, human IgG1, lambda, V domains shown)
VH: B1 VH with I58R, F99Y, K101G, D104I, M105L
VL: B1 VL with T27S, G53V, E94S, Y95S, T96D, E97T, S98H, L100G
B4: dBBAT119-P253 (antibody, human IgG1, lambda, V domains shown)
VH: B1 VH with S31T, Y32F, I58K, D59S, F99Y, K101A, D104F
VL: B1 VL with E52Y, G53T, E94R, T96D, E97H, S98Q, L100S
notes: also called dBBAT119H-P253/dBBAT119L-LamLib
B5: dBBAT037-P253 (antibody, human IgG1, lambda, V domains shown)
VH: B1 VH with S31G, K101L, D104S, M105L
VL: B1 VL with G53T, E94S, Y95G, T96A, E97S, S98I, V99L
B6: dBBAT122-P253 (antibody, human IgG1, lambda, V domains shown)
VH: B1 VH with S31T, I58K, D59F, K101G, D104N
VL: B1 VL with T27S, G53V, T96I
B7: dBBAT112-P253 (antibody, human IgG1, lambda, V domains shown)
VH: B1 VH with S31T, I58K, D59F, K101V, D104N
VL: B1 VL with T27S, G53V, T96I

T2 sequence (chain, as listed by the source limits assumed): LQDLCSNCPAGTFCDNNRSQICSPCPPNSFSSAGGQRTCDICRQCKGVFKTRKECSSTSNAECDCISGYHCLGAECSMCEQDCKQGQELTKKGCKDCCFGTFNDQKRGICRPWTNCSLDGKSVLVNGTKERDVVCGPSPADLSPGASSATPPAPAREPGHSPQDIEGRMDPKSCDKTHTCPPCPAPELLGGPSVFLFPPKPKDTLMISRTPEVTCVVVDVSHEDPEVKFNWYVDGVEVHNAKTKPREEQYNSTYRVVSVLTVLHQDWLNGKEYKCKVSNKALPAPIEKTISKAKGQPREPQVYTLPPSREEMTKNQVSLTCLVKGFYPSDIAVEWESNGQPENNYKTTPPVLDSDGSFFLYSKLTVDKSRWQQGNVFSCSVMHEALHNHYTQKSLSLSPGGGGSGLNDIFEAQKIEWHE

For one assay, the target named is T1, hCD137 (FXa digested) (human, UniProt Q07011 24-186).
T1 construct: Factor Xa digestion and Protein A removed the Fc; also called human CD137 extracellular domain
T1 sequence (Q07011 other isoform, or with tags, fused parts or gaps limits assumed): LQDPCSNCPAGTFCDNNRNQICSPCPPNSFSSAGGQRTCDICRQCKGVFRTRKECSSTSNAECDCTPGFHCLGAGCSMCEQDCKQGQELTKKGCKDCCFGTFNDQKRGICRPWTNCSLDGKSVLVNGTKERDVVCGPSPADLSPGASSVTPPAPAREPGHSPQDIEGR
The assay is described as follows: SPR, 10 uM ADP. The procedure:
(§1) Biacore T200 (GE Healthcare) was used to analyze the interaction of antigen-antibody reaction between the anti-CD137 antibodies and hCD137 (FXa digest). […] For the running buffer, 20 mM ACES, 150 mM NaCl, 2 mM MgCl₂, 0.05% Tween20 (pH 7.4) was used, and 10 mM Glycine-HCl (pH 1.5) was used as the regeneration solution.
(§2) After capturing of the anti-CD137 antibodies suspended in TBS, 500 nM hCD137 (FXa digest) was injected into each flow cell at a flow rate of 10 μL/min for three minutes. This three-minute period served as the binding phase for hCD137 (FXa digest), and after the binding phase ended, the two-minute period of switching to the running buffer served as the dissociation phase for hCD137 (FXa digest). After completion of the dissociation phase, the regenerative solution was injected at a flow rate of 30 μl/min for 30 seconds. The above was the cycle for measuring the binding activity of anti-CD137 antibodies. The binding amount of hCD137 (FXa digest) that interacted with the anti-CD137 antibody in the binding phase was adjusted by the amount of antibody captured. Biacore T200 Evaluation Software Version 2.0 was used to display the binding amount (RU) per capture ligand 1 RU, and values of the antibody capture amount (amount of antibody captured) and antigen-binding amount were obtained. Since the binding amount of antigen reflects the binding activity, it can be said that dependence on a small molecule is recognized when the value in the presence of the small molecule (ATP, ADP or AMP) is higher than the value without the small molecule. In particular, the larger the difference is, the higher the dependence is on a small molecule.
Molecule B1 displayed a binding amount of 20 RU.

Molecule B2 returned a binding amount of 19.1 RU.

In the case of B3, the binding amount was 19.6 RU.

Turning to B4, the binding amount was 67.2 RU.

B5 gave a binding amount of 62.9 RU.

In turn, B6 returned a binding amount of 19.2 RU.

For the molecule B7, the binding amount was 27.4 RU.

A further assay deals with T1, hCD137 (FXa digested). The assay is described as follows: SPR, 100 uM ATP. The protocol: as §1, §2
B1 showed a binding amount of 3 RU.

As for B2, the binding amount came to 4.3 RU.

Molecule B3 came in with a binding amount of 2.4 RU.

Take B4: the binding amount was 12.9 RU.

In turn, B5 returned a binding amount of 15.9 RU.

In the case of B6, the binding amount was 4.7 RU.

Molecule B7 yielded a binding amount of 6.3 RU.

A further assay has as its target T1, hCD137 (FXa digested). The assay is described as follows: SPR, 100 uM AMP. The protocol: as §1, §2
As for B1, the binding amount is 3.3 RU.

Molecule B2 returned a binding amount of 4.7 RU.

In turn, B3 showed a binding amount of 3 RU.

Molecule B4 displayed a binding amount of 26.9 RU.

Consider B5, for which the binding amount is 13.8 RU.

Regarding B6, the binding amount turned out to be 4.1 RU.

B7 returned a binding amount of 4.8 RU.

The target of another assay is T1, hCD137 (FXa digested). The assay is described as follows: SPR, 1 mM AMP. The protocol: as §1, §2
For B1, the binding amount was found to be 2.9 RU.

B2: the binding amount was 7.8 RU.

Consider B3, for which the binding amount is 5.7 RU.

B4 displayed a binding amount of 58.6 RU.

On to B5, for which the binding amount was 21.7 RU.

As to B6, the binding amount is 5.7 RU.

Regarding B7, the binding amount was found to be 6.5 RU.

A further assay has as its target T2, biotinylated Fc-fused monkey CD137 (monkey, biotin on the AviTag).
T2 construct: also called cyCD137-Fc-BAP
The assay is described as follows: ELISA, 1 mM ADP, 0.039 ug/mL. On the set-up: reference not given here. The procedure:
(§3) The obtained antibodies were evaluated for binding to monkey CD137 by ELISA. The cyCD137-Fc-BAP prepared in Reference Example 1 was immobilized on Streptawell microtiter plates. After the unbound antigen was removed from the plates by washing each well of the plates with the wash buffer, the wells were blocked with 150 μL of a blocking buffer (TBS with 2% BSA) for 1 hour or more. The blocking buffer was removed from each well, and 100 μL of the purified antibodies diluted in TBS with a final concentration of 1 mM ADP, or TBS with a final concentration 1 mM ADP was added to each well. The plate to which the antibody was added was shaken at 600 rpm for 1 hour. The AP-conjugated anti-human lambda antibodies (BETHYL) diluted in TBS with a final concentration of 1 mM ADP were added to each well after washing with a wash buffer (TBS with 0.1% Tween20) containing a final concentration of 1 mM ADP. After incubation for one hour and washing with a wash buffer containing a final concentration of 1 mM […], BluePhos phosphate substrate (KPL) was added. Color development was measured by absorbance at 600 nm. Samples with a concentration-dependent increase in the absorbance ratio can be said to be bound to monkey CD137.
For B1, the absorbance ratio is 0.5.

Regarding B3, the absorbance ratio is 1.2.

With B4, the absorbance ratio turned out to be 26.6.

With B5, the absorbance ratio turned out to be 1.3.

In the case of B6, the absorbance ratio worked out at 1.

Consider B7, for which the absorbance ratio came to 0.6.

For another assay, the target named is T2, biotinylated Fc-fused monkey CD137. The assay is described as follows: ELISA, 1 mM ADP, 0.010 ug/mL. On the set-up: reference not given here. The procedure:
as §3
For B1, the absorbance ratio is 0.6.

B3: the absorbance ratio came out at 0.9.

With B4, the absorbance ratio turned out to be 10.2.

For B5, the absorbance ratio was 1.1.

On to B6, for which the absorbance ratio is 0.9.

For the molecule B7, the absorbance ratio was found to be 0.6.

For another assay the target is unchanged. The assay is described as follows: ELISA, 1 mM ADP, 10 ug/mL. On the set-up: reference not given here. The procedure: as §3
B1: the absorbance ratio worked out at 15.1.

For B3, the absorbance ratio stood at 40.5.

On to B4, for which the absorbance ratio was 55.3.

B5: the absorbance ratio was determined as 32.5.

For the molecule B6, the absorbance ratio is 31.9.

As for B7, the absorbance ratio is 19.8.

The next assay deals with T1, hCD137 (FXa digested). The assay is described as follows: SPR, 100 uM ADP. The protocol:
as §1, §2
For the molecule B1, the binding amount was 33 RU.

B2 displayed a binding amount of 58.7 RU.

The molecule B3 returned a binding amount of 56.6 RU.

The molecule B4 gave a binding amount of 112 RU.

Molecule B5 came in with a binding amount of 72.1 RU.

Regarding B6, the binding amount is 55.5 RU.

Regarding B7, the binding amount is 43 RU.

The next assay deals with T1, hCD137 (FXa digested). The assay is described as follows: SPR, no small molecule. The protocol: as §1, §2
Molecule B1 had a binding amount of 1.5 RU.

For the molecule B2, the binding amount is 2.9 RU.

B3: the binding amount came to 2.9 RU.

The molecule B4 registered a binding amount of 3.3 RU.

In the case of B5, the binding amount was 3.8 RU.

B6: the binding amount was 3.3 RU.

In turn, B7 returned a binding amount of 3.7 RU.

Another assay addresses T2, biotinylated Fc-fused monkey CD137. The assay is described as follows: ELISA, 1 mM ADP, 0.156 ug/mL. On the set-up: reference not given here. The protocol: as §3
B1: the absorbance ratio came out at 0.7.

As to B3, the absorbance ratio is 1.7.

Regarding B4, the absorbance ratio was determined as 47.7.

As to B5, the absorbance ratio was 1.9.

B6: the absorbance ratio stood at 1.9.

Turning to B7, the absorbance ratio came to 1.

A further assay has the same target. The assay is described as follows: ELISA, 1 mM ADP, 2.5 ug/mL. On the set-up: reference not given here. The protocol: as §3
B1: the absorbance ratio is 5.5.

Take B3: the absorbance ratio was determined as 14.

Regarding B4, the absorbance ratio is 56.6.

Regarding B5, the absorbance ratio turned out to be 12.7.

Consider B6, for which the absorbance ratio is 16.7.

For B7, the absorbance ratio was 8.1.

The target is the same in another assay. The assay is described as follows: ELISA, 1 mM ADP, 0.625 ug/mL. More on the design: reference not given here. The procedure:
as §3
In the case of B1, the absorbance ratio turned out to be 1.7.

With B3, the absorbance ratio is 4.6.

Turning to B4, the absorbance ratio was 57.2.

Regarding B5, the absorbance ratio came out at 4.6.

In the case of B6, the absorbance ratio turned out to be 5.7.

With B7, the absorbance ratio is 2.8.

The next assay has as its target T1, hCD137 (FXa digested). The assay is described as follows: SPR, 1 mM ATP. The protocol: as §1, §2
Turning to B1, the binding amount turned out to be 6.2 RU.

Molecule B2 showed a binding amount of 11.7 RU.

Molecule B3 displayed a binding amount of 9.2 RU.

In turn, B4 displayed a binding amount of 45.7 RU.

In turn, B5 had a binding amount of 27.5 RU.

Consider B6, for which the binding amount is 11.5 RU.

In the case of B7, the binding amount amounted to 12.6 RU.
